Assay results taken from the RNAGym collection of RNA variant scans (doi:10.1093/molbev/msab373).

B1: Azoarcus group I ribozyme (parent)
chain: GUGCCUUGCGCCGGGAAACCACGCAAGGGAUGGUGUCAAAUUCGGCGAAACCUAAGCGCCCGCCCGGGCGUAUGGCAACGCCGAGCCAAGCUUCGGCGCCUGCGCCGAUGAAGGUGUAGAGACUAGACGGCACCCACCUAAGGCAAACGCUAUGGUGAAGGCAUAGUCCAGGGAGUGGCGAAAGUCACACAAACCGG

Variants of: B1
Assay: reverse-splicing fitness (ratio to wild type); higher = more active; in vitro selection; Mg2+ level not given
Method in brief: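 An in vitro group I ribozyme library with randomized positions was T7-transcribed and gel-purified. In triplicate, 10 pmol RNA in EPPS pH 7.5 was reacted with 50 pmoles of a 30-nt RNA substrate for 1 h at 37 °C across several added MgCl2 levels (1–48 mM), then stopped with EDTA. Products were reverse transcribed from a substrate-complementary primer, PCR-amplified and sequenced (HiSeq 4000). Fitness is a variant's read proportion after selection over that before, normalised to wild type.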

Variant | reverse-splicing fitness
GUGCCUUGCGCCGGGAAACCACGCAAGGGAUGGUGUCAAAUUCGGCGAAACCUAAGCGCCCGCCCGGGCGUAUGGCAACGCUGAGCCAAGCUUCGGCGCCUGCGCCGAUGCAGGUGUAGUGACUAGACGGCACCCACCUAAGGCCAACGAUAUGGUGAAGGCAUAGUCCAGGGAGUGGCGAAAGUCACACAAACCGG | 0.00398
GUGCCUUGCGCCGGGAAACCACGCAAGGGAUGGUGUCAAAUUCGGCGAAACCUAAGCGCCCGCCCGGGCGUAUGGCAACGCUGAGCCAAGCUUCGGCGCCUGCGCCGAUGCAGGUGUAGUGACUAGACGGCACCCACCUAAGGCCAACGAUAUGGUGAAGGCAUAGUCAAGGGAGUGGCGAAAGUCACACAAACCGG | 0.00255
GUGCCUUGCGCCGGGAAACCACGCAAGGGAUGGUGUCAAAUUCGGCGAAACCUAAGCGCCCGCCCGGGCGUAUGGCAACGCUGAGCCAAGCUUCGGCGCCUGCGCCGAUGCAGGUGUAGUGACUAGACGGCACCCACCUAAGGCCAACGAUAUGGUGAAGGCAUAGUCAAGGGAGAGGCGAAAGUCACACAAACCGG | 0.00222
GUGCCUUGCGCCGGGAAACCACGCAAGGGAUGGUGUCAAAUUCGGCGAAACCUAAGCGCCCGCCCGGGCGUAUGGCAACGCUGAGCCAAGCUUCGGCGCCUGCGCCGAUGCAGGUGUAGUGACUAGACGGCACCCACCUAAGGCCAACGAUAUGGUGAAGGCAUAGUCAAGGGAGCGGCGAAAGUCACACAAACCGG | 0.00295
GUGCCUUGCGCCGGGAAACCACGCAAGGGAUGGUGUCAAAUUCGGCGAAACCUAAGCGCCCGCCCGGGCGUAUGGCAACGCUGAGCCAAGCUUCGGCGCCUGCGCCGAUGCAGGUGUAGUGACUAGACGGCACCCACCUAAGGCCAACGAUAUGGUGAAGGCAUAGUCAAGGGAGGGGCGAAAGUCACACAAACCGG | 0.00183
GUGCCUUGCGCCGGGAAACCACGCAAGGGAUGGUGUCAAAUUCGGCGAAACCUAAGCGCCCGCCCGGGCGUAUGGCAACGCUGAGCCAAGCUUCGGCGCCUGCGCCGAUGCAGGUGUAGUGACUAGACGGCACCCACCUAAGGCCAACGAUAUGGUGAAGGCAUAGUCGAGGGAGUGGCGAAAGUCACACAAACCGG | 0.00233
GUGCCUUGCGCCGGGAAACCACGCAAGGGAUGGUGUCAAAUUCGGCGAAACCUAAGCGCCCGCCCGGGCGUAUGGCAACGCUGAGCCAAGCUUCGGCGCCUGCGCCGAUGCAGGUGUAGUGACUAGACGGCACCCACCUAAGGCCAACGAUAUGGUGAAGGCAUAGUCGAGGGAGAGGCGAAAGUCACACAAACCGG | 0.00308
GUGCCUUGCGCCGGGAAACCACGCAAGGGAUGGUGUCAAAUUCGGCGAAACCUAAGCGCCCGCCCGGGCGUAUGGCAACGCUGAGCCAAGCUUCGGCGCCUGCGCCGAUGCAGGUGUAGUGACUAGACGGCACCCACCUAAGGCCAACGAUAUGGUGAAGGCAUAGUCGAGGGAGCGGCGAAAGUCACACAAACCGG | 0.00318
GUGCCUUGCGCCGGGAAACCACGCAAGGGAUGGUGUCAAAUUCGGCGAAACCUAAGCGCCCGCCCGGGCGUAUGGCAACGCUGAGCCAAGCUUCGGCGCCUGCGCCGAUGCAGGUGUAGUGACUAGACGGCACCCACCUAAGGCCAACGAUAUGGUGAAGGCAUAGUCGAGGGAGGGGCGAAAGUCACACAAACCGG | 0.00223
GUGCCUUGCGCCGGGAAACCACGCAAGGGAUGGUGUCAAAUUCGGCGAAACCUAAGCGCCCGCCCGGGCGUAUGGCAACGCUGAGCCAAGCUUCGGCGCCUGCGCCGAUGCAGGUGUAGUGACUAGACGGCACCCACCUAAGGCCAACGAUAUGGUGAAGGCAUAGUCUAGGGAGUGGCGAAAGUCACACAAACCGG | 0.00301
GUGCCUUGCGCCGGGAAACCACGCAAGGGAUGGUGUCAAAUUCGGCGAAACCUAAGCGCCCGCCCGGGCGUAUGGCAACGCUGAGCCAAGCUUCGGCGCCUGCGCCGAUGCAGGUGUAGUGACUAGACGGCACCCACCUAAGGCCAACGAUAUGGUGAAGGCAUAGUCUAGGGAGAGGCGAAAGUCACACAAACCGG | 0.00323
GUGCCUUGCGCCGGGAAACCACGCAAGGGAUGGUGUCAAAUUCGGCGAAACCUAAGCGCCCGCCCGGGCGUAUGGCAACGCUGAGCCAAGCUUCGGCGCCUGCGCCGAUGCAGGUGUAGUGACUAGACGGCACCCACCUAAGGCCAACGAUAUGGUGAAGGCAUAGUCUAGGGAGCGGCGAAAGUCACACAAACCGG | 0.00249
GUGCCUUGCGCCGGGAAACCACGCAAGGGAUGGUGUCAAAUUCGGCGAAACCUAAGCGCCCGCCCGGGCGUAUGGCAACGCUGAGCCAAGCUUCGGCGCCUGCGCCGAUGCAGGUGUAGUGACUAGACGGCACCCACCUAAGGCCAACGAUAUGGUGAAGGCAUAGUCUAGGGAGGGGCGAAAGUCACACAAACCGG | 0.00207
GUGCCUUGCGCCGGGAAACCACGCAAGGGAUGGUGUCAAAUUCGGCGAAACCUAAGCGCCCGCCCGGGCGUAUGGCAACGCUGAGCCAAGCUUCGGCGCCUGCGCCGAUGCAGGUGUAGUGACUAGACGGCACCCACCUAAGGCCAACGAUAUGGUGAAGGCAUAGUCCAGGGAGAGGCGAAAGUCACACAAACCGG | 0.00307
GUGCCUUGCGCCGGGAAACCACGCAAGGGAUGGUGUCAAAUUCGGCGAAACCUAAGCGCCCGCCCGGGCGUAUGGCAACGCUGAGCCAAGCUUCGGCGCCUGCGCCGAUGCAGGUGUAGUGACUAGACGGCACCCACCUAAGGCCAACGAUAUGGUGAAGGCAUAGUCCAGGGAGCGGCGAAAGUCACACAAACCGG | 0.00397
